Assay results from paper PMC2811071.

Molecular target: T1, raver1 RRM1 (human (Homo sapiens), UniProt Q8IY67 59-130)
T1 sequence: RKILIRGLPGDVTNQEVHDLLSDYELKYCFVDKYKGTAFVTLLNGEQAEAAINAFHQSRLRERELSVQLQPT
Assay: ITC

UCAUGCAGUCUG (ssRNA) [vinculin mRNA 12-mer]
binding result: binds
